Experiments:
[1] = target: F-actin (rabbit skeletal muscle actin, polymerized) (rabbit) (UniProt P68135)
[2] = target: α-actinin-2 (Homo sapiens) (UniProt P35609); settings: cited from earlier work
[3] = target: F-actin (Oryctolagus cuniculus) (UniProt P68135); settings: cited from earlier work

α-actinin-2 (Homo sapiens), sequence (P35609 whole entry): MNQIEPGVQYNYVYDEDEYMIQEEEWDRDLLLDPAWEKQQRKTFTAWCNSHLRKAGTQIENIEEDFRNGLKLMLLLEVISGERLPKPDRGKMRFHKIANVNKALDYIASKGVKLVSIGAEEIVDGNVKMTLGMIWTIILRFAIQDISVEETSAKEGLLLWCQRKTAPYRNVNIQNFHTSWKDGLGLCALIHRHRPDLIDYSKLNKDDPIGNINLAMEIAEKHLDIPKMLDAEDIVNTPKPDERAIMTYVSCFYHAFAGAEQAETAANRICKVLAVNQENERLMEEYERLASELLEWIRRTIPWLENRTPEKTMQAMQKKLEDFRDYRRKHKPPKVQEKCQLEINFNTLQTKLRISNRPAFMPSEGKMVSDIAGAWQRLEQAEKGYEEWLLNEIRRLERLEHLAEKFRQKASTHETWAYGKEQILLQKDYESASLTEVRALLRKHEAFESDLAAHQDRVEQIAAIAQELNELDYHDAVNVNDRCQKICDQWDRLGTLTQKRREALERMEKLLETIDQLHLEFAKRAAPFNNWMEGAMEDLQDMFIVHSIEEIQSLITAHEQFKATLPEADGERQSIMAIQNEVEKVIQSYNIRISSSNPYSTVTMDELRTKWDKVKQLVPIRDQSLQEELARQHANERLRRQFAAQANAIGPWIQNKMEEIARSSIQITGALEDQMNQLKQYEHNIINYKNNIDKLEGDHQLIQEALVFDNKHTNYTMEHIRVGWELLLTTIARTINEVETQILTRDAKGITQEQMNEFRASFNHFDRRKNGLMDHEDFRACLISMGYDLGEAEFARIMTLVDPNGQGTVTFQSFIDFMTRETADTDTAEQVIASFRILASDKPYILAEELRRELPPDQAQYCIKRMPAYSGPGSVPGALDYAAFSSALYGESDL
Titin Zr-7, sequence (Q8WZ42 692-740): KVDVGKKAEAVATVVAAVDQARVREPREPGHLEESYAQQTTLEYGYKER

Substance | FRAP in Z-discs of C2C12 myotubes, median half-time of fluorescence recovery [1] [s] | also measured
N-terminal EGFP fusion of myotilin K354A (from UniProt Q9UBF9 1-498) (natural protein) | 48.2 | 
N-terminal EGFP fusion of myotilin K354/359A (from UniProt Q9UBF9 1-498) (natural protein) | 35.5 | 
Titin Zr-7 (from UniProt Q8WZ42) |  | Kd [2]: 480 nM
N-terminal EGFP fusion of myotilin K354/358/359A (from UniProt Q9UBF9 1-498) (natural protein) | 32.3 | 
Palladin (from UniProt Q8WX93) |  | Kd [3]: 2100 nM
N-terminal EGFP fusion of myotilin, wild type (from UniProt Q9UBF9 1-498) (natural protein) | 72.4 | 
N-terminal EGFP fusion of myotilin K359A (from UniProt Q9UBF9 1-498) (natural protein) | 64.1 | 
